The values that follow are results of earlier work, collected in article PMC3824636.

The pKa is the negative logarithm of the acid dissociation constant.

One data set concerns Cys302. Briefly: chemical modification (described only as 'titration of Cys-302').
Data set [1] deals with Cys149 (UniProt position 150, VSNASCTTNCL). Briefly: chemical modification or UV-vis (listed collectively, not mapped to individual values). The note with it: not stated (apo or holo not specified).
Data set [2] has as its target Cys149 (UniProt position 152, ISNASCTTNCL). The data set is described as above. The note with it: not stated (apo or holo not specified).
The target of data set [3] is Cys149 (UniProt position 156, VSNASCTTNCL). Described as above. The note with it: not stated (apo or holo not specified).

On to “Non-phosphorylating NADP-dependent glyceraldehyde-3-phosphate dehydrogenase (GAPN) (Streptococcus mutans)”, for which the pKa in the data set on Cys302 (NADP+-bound (holo-enzyme)) is recorded as 6.1; in the data set with Cys302 (apo-enzyme (no cofactor)), 8.5.

Take “Glyceraldehyde-3-phosphate dehydrogenase (GAPDH), pig liver as stated (Sus scrofa)”: in the data set with Cys149 [1], the pKa is given as 5.5.

As for “Glyceraldehyde-3-phosphate dehydrogenase (GAPDH) (Escherichia coli)”, in the data set with Cys149 [1], the pKa is reported as approximately 5.7.

For the substance “Glyceraldehyde-3-phosphate dehydrogenase (GAPDH) (Geobacillus stearothermophilus (Bacillus stearothermophilus))”, in the data set with Cys149 [2], the pKa was 5.9.

Turning to “Cytoplasmic glyceraldehyde-3-phosphate dehydrogenase GAPC1 (Arabidopsis thaliana)”, the pKa with Cys149 [3] is 5.7.
